According to patent US5179196A, “Purification of proteins employing CTAP-III fusions” (SRI International, priority 1989, dated 1993):
Read-outs that look alike come from different tables or passages of the source.

Legend:
thrombin [1] = target: T1, thrombin (Homo sapiens, UniProt P00734); assay: Specific activity of recombinant hirudin (antithrombin activity), applicant's hirudin; type: biochemical
Description: There are a number of activity assays developed to determine the quality of hirudin preparations and for use in quantitating hirudin in various biochemical and pharmacological experiments. Two of these methods have been refined herein and may be used routinely and reproducibly. The first, a chromogenic substrate assay measures the inhibition by hirudin of thrombin's ability to hydrolyze small synthetic peptide substrates. The second, a fibrin-clotting assay, measures the kinetics of clot formation, using either human plasma or purified fibrinogen as the thrombin substrate.
In the chromogenic assay, antithrombin activity is achieved by measuring the inhibition of release of p-nitroaniline from the chromogenic substrate H-D-phenylalanyl-L-pipecolyl-L-arginine-p-nitroanilide dihydrochloride (S-2238, supplied by Kabivitrum) by thrombin in the presence of hirudin. Thrombin concentration is 2 nM (typically 0.12 NIH units/ml), and hirudin can be assayed reproducibly at an approximate concentration range of 0.3 to 1 nM, using 296 uM substrate in 50 mM Tris buffer, 100 mM NaCl, pH 7.8, and 0.1% polyethylene glycol-6000 (PEG). PEG is included to inhibit binding of thrombin to the plastic surface of the microplate or cuvette; for the same reason, reaction vessels are pretreated with 1% PEG-20,000 prior to assay.
Hirudin inhibits the thrombin-mediated conversion of fibrinogen into a fibrin clot. […]

Isoelectric point (pI) = type: physicochemical
thrombin [2] = target: T1, thrombin; settings: E. coli, cited from earlier work
[3] = test system: B16/F10 cells (murine melanoma); assay: Cell adhesion assay, tumor cells binding to peptide-coated wells; type: cell-based; settings: summary of Table 2
Description: One of the assays used to measure the activity of the laminin B1 peptide measures the binding of tumor cells containing the laminin receptor to the peptide immobilized on the surface of a culture tissue (Graf et al (1987) Cell 48:989-996). This assay is a convenient and sensitive method for routine measurement of laminin cell receptor binding and therefore a good indicator of laminin antagonist activity.
The laminin B1 -40 peptide, along with the previously described YIGSR and CDPGYIGSR peptides, were dissolved in phosphate-buffered saline (PBS) and were coated onto Falcon #3915 polystyrene 96-well plates at 37° C. for 60 min. The peptide solutions were removed, and the wells were washed twice with PBS. Non-specific cell binding was prevented by adding 200 ul 0.1% bovine serum albumin (BSA) (Sigma #4965) in PBS to the wells and incubating for 60 min at 37° C. The BSA was removed by washing twice with PBS. […] The optical density of the solutions was read on a Molecular Devices Corporation plate reader at a wavelength between 590 nm and 405 nm. Extrapolation of optical density to number of cells bound was done by comparison of readings to a standard curve obtained by incubating various numbers of cells in microtiter plate wells for 5 h (to allow firm attachment but no significant dividing), and washing and staining as described above.

HV-1: hirudin variant 1, thrombin inhibitor of Hirudo medicinalis, produced from a synthetic DNA
Sp. Act. (thrombin [1]; AT (antithrombin units), E. coli, pNP6ΔRI-CRM/HIR, intracellular (Example 4)): 11,300 U/mg | specific activity (thrombin [1]; purified hirudin HV-1 standard): greater than 10 antithrombin units per ug | pI (isoelectric point) (Isoelectric point (pI)): 3.8 | Sp. Act. (thrombin [2]; pMF1, lacUV5/tac, intracellular): 8,500 U/mg | Sp. Act. (thrombin [2]; IU, international units, pHIR20 lam-PL, intracellular): 500 U/mg | Sp. Act. (thrombin [2]; IU, international units, pHIR21 tac, periplasmic secretion): 560 U/mg

Pro1 -Cys Pro Asp Gly Pro Asp Ser Gly Arg Gln Phe Ala Arg Ser Cys Tyr Gln Asp Pro Val Thr Leu Gln Leu Ala X Val Cys Asp Pro Gly Tyr Ile Gly Ser Arg Cys Asp Asp-Y [LamB1 -40]
binding of metastatic tumor cells compared with YIGSR or CDPGYIGSR (in words) [3]: binds metastatic tumor cells more effectively | pI (isoelectric point) (Isoelectric point (pI)): 3.65

B1: CTAP-III(Leu21): analog of CTAP-III in which the methionine at position 21 is replaced with leucine (protein, UniProt P02775 44-128, looked up, variant M21L)
Connective tissue-activating …: NLAKGKEESLDSDLYAELRCLCIKTTSGIHPKNIQSLEVIGKGTHCNQVEVIATLKDGRKICLDPDAPRIKKIVQKKLAGDESAD
modifications: Connective tissue-activating peptide III
pI (isoelectric point) (Isoelectric point (pI)): approximately 7.8
